The nanobody polyreactivity screen of Harvey et al. (2022)

Test: yeast display, Sf9 membrane polyspecificity reagent, FACS + sequencing; frameworks hold sequencing errors
Summary of the method: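 Genes from sorted yeast were amplified by colony PCR, read by MiSeq 2 × 250 sequencing and filtered on CDR length. These cells carried a synthetic nanobody library in Saccharomyces cerevisiae BJ5465 and were sorted by FACS into low and high (top ~1%) gates on anti-HA and streptavidin fluorescence. Polyreactivity is labelled according to the gate of origin.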

Sequence	polyreactivity (PSR sort gate)
QVQLVESGGGLVQAGGSLRLSCAASGRTFKLNAMGWYRQAPGKERELVAGITRTGDSTYYADSVKGRFTISRDNAKNTVYLQMNSLKPEDTAVYYCAKDGPWKFIYDYWGQGTQVTVSS	low polyreactivity
QVQLVESGGGLVQAGGSLRLSCAASGRTFKLYAMGWYIQAPGKERELVAAISIRGTSTYYADSVKGRFTISRDNAKNTVYLQMNSLKPEDTAVYYCAAEDRYAYYMVRWQCYYYWGQGTQVTVSS	low polyreactivity
QVQLVESGGGLVQAGGSLRLSCAASGRTFKLYAMGWYRQAPGKERELVAAISRSSGSTYYADSVKGRFTISRDNAKNTDYLQMNSLKPEDTAVYYCAARKNRAYGYWGQGTQVTVSS	high polyreactivity
QVQLVESGGGLVQAGGSLRLSCAASGRTFKPNTMGWYRQAPGKERELVAAITSSGGSTYYADSVKGRFTISRDNAKNTVYLQMNSLKPEDTAVYYCAARGGAPYRIFKDDYWGQGTQVTVSS	high polyreactivity
QVQLVESGGGLVQAGGSLRLSCAASGRTFKPYALGWYRQAPGKERELDAAISTGGSTNYADSEKGRFTISRDNAKNSVYLQMNSLKPEDTAVYYCAADYFLYSYFLGLMDYWGQGTLVTVSS	low polyreactivity
QVQLVESGGGLVQAGGSLRLSCAASGRTFKPYAMGWYRQAPGKERELVAAIRSAGTTNYADSVKGRFTISRDNAKNTVYLQMNSLKPEDTAVYYCNAGTYLRRYYGFDYWGQGTQVTVSS	high polyreactivity
QVQLVESGGGLVQAGGSLRLSCAASGRTFKRNAMGWYRQAPGKEREFVAVITGSGGSTYYADSVKGRFTISRDNAKNTVYLQMNSLKPEDTAVYYCAAQATRYGQYTYDYWGQGTQVTVSS	high polyreactivity
QVQLVESGGGLVQAGGSLRLSCAASGRTFKRYAMGWYRQAPGKERELVAAIRQRGGSTYYADSVMGRFTISRDNAKNTVYLQMNSLKPEDTAVYYCAAVIPRPYSVGFDYWGQGTQVTVSS	high polyreactivity
QVQLVESGGGLVQAGGSLRLSCAASGRTFKSYAMGWYRQAPWKESELVAAISYSGGSTYYADSVKGRVTISRDNAKNTVYLQMNSLKPEDTAVYYCNVVSKVIRGLSGDGYWGVGTQVTVSS	high polyreactivity
QVQLVESGGGLVQAGGSLRLSCAASGRTFKSYSMGWYRPAPGKERELVAAISWSGGSTYYADSVKGRFTISRDNAKNTVYLQMNSLKPEDTAVYYCAKRGYASGSKWDYGYWGQGTQVTVSS	high polyreactivity
QVQLVESGGGLVQAGGSLRLSCAASGRTFKTYAMGWYRQAPGKERELVAAISASGGRTYYADSVKGRFTISRDNAKNTVYLQMNSLKPEDTAVYYCAALGYILNGGDYWGQGTQVTVSS	high polyreactivity
QVQLVESGGGLVQAGGSLRLSCAASGRTFKTYAMGWYRQAPGKERELVAAITRRGGSTYYADSVKGRFTISSDNAKNTVYLQMNRLKPEDTAVYYCAAGFYFLSLFSGRMDYWGQGTQVTVSS	high polyreactivity
QVQLVESGGGLVQAGGSLRLSCAASGRTFKYNAMGWYRQAPGKERELVAAISSTGSTNYADSVKGRFTISRDNAKNTVYLQMNSLKPEDTAVYYCAASYFFVQWGWYYYWGQGTQVTVSS	low polyreactivity
QVQLVESGGGLVQAGGSLRLSCAASGRTFKYNAMGWYRQAPGKERELVATISGSGGRTYYADSVKGRFTISRDNAKNTVYLQMNSLTPEDTAVYYCAAVPSYHSTSPFYYWGLGTQVTVSS	high polyreactivity
QVQLVESGGGLVQAGGSLRLSCAASGRTFKYYAMGWYRQAPGKERELVAAISGSGGSTYYADSVKGRFTISRDNAKNTVYLQMNSLKPEDTAVYYCATGGGKTRSYNYWGQGTQVTVSS	high polyreactivity
QVQLVESGGGLVQAGGSLRLSCAASGRTFKYYAMGWYRQAPGKERELVAAISHSGGSTYYADSVKGRFTISRDNAKNTVYLQMNSLKPEDTAVYYCAADHGDGNYPYYYWGQGTQVTVSS	high polyreactivity
QVQLVESGGGLVQAGGSLRLSCAASGRTFKYYAMGWYRQAPGKERELVAAISYNGGSTFYADSVKGRFTISRDNAKNTVYLQMNSLKPVDTAVYYCAAGPRGTGKYYWGQGTQVTVSS	high polyreactivity
QVQLVESGGGLVQAGGSLRLSCAASGRTFKYYAMGWYRQAPGKERELVAAISYSGGSTYYADSVKGRFTISRDNAKNTVYLQMNSLKPEDTAVYYCAARFTRYYSGGDQKYDYWGQVTQVTVSS	high polyreactivity
QVQLVESGGGLVQAGGSLRLSCAASGRTFKYYAMGWYRQAPGKERELVAAITASDGSTYYADSVKGRFTISRDNAKNTVYLQMNSLKPEDTAVYYCAAVPYRYTYDYWGQGTQVTVSS	high polyreactivity
QVQLVESGGGLVQAGGSLRLSCAASGRTFKYYAMGWYRQAPGKERELVATINYSGGGTNYADSVKGRYTISRDNATNTVSLQMNSLKPDDTAVYYCAARWLWRIPYDYWGEGTQVTVSS	high polyreactivity
QVQLVESGGGLVQAGGSLRLSCAASGRTFLALGWYRPAPGKERELVAAISRTNYADSVKGRVTISRDNAKNTVYLQMHSLKPEETAVYYCAKEYYSYEGYLGLSYVRRYDYWGQGTQVTVSS	low polyreactivity

Sequence	polyreactivity (PSR sort gate)
QVQLVESGGGLVQAGGSLRLSCAASGRTFLFYAMGWYRQAPGKERELVASITLNGGSTYYADSVKGRFTISRDNAKNTVYLQMNSLKPEETAVYYCNKRTRYQIGYGYWGQGTQVTVSS	low polyreactivity
QVQLVESGGGLVQAGGSLRLSCAASGRTFLGYTMGWYRQAPGKERELVAAITSGGSTYYADSVKGRFTISRDNAKNPVYLQMNSLKPEDTAVYYCARGYFEQVQYWYDNEYDFWGQGTQVTGSS	low polyreactivity
QVQLVESGGGLVQAGGSLRLSCAASGRTFLIYAMGWSRPAPGKERELVAAINFSGGNTYNADSVKGRFTISRDNAKHTVYLQMNSLKPEDTAVYYCAAGVYSFRYDYWGQGTQVTVSS	low polyreactivity
QVQLVESGGGLVQAGGSLRLSCAASGRTFLIYAMGWYRQAPGKERELVAAITSGGRTKYADSVKGRFTISRDNAKNTVYLQMNSLKPEDTAVYYCAAESNRLRYYYWGQGTQVTVSS	high polyreactivity
QVQLVESGGGLVQAGGSLRLSCAASGRTFLIYAMGWYRQAPGKERELVAGITRGSTTYADSVKGRFTISRDNAKNTVYLQMNSLKPEDTEVYYCAARNYSVATYGEYDYWGQGTQVTVSS	high polyreactivity
QVQLVESGGGLVQAGGSLRLSCAASGRTFLLNAMGWYRQAPGKERELVAAITGSGGRTNYADSVKGRFTISRDNAKNTVYLQMNSLKPEDTAVYYCNARFPDWALSEISHSTTYGYWGQGTQVTVSS	low polyreactivity
QVQLVESGGGLVQAGGSLRLSCAASGRTFLRNAMGWYRQAPGKERELVAAISWRGGSTYYADSLKGRFTISRDNAKNTVYLQMNSLKPEDTAVYYCNARDGLASDWGQGTQVTVSS	high polyreactivity
QVQLVESGGGLVQAGGSLRLSCAASGRTFLRYAMGWYRQAPRKERELVAAISVSGASTNYADSVKGRFTISRDYAKNTVYLQMNSLKPEDTAVYYCAARVADYDGVPLYRHGDYWGQGTQVTVSS	low polyreactivity
QVQLVESGGGLVQAGGSLRLSCAASGRTFLSYAMGWYRQAPGKERELVAAITSSGGTTNYADSVKGRFTISRDNAKNTVYLQMNSLKPEDTAVYYCAAYSWYFGSRYDYWGQGTQVTVSS	low polyreactivity
QVQLVESGGGLVQAGGSLRLSCAASGRTFLTNAMGWYRQAAGKERELVAAITSSGGNTYYADSVKGRFTISRDNAKNTVYLQMNSLKPEDTAVYYCAAPGYVWYGGRWVYRYYYWGQGTQVTVSS	high polyreactivity
QVQLVESGGGLVQAGGSLRLSCAASGRTFLTNAMGWYRQAPGKERELVAAITSSGGSTYYADSVKGRFTISRDNAKNTVYLLMNSLKPEDTAVYYCNKKSALYRRYDYWGQGTQVTVSS	low polyreactivity
QVQLVESGGGLVQAGGSLRLSCAASGRTFLVNAMGWYRQAPGKERELVAAISQRGGSTDYADSVKGRFTISRDNAKNTVYLQMNSLKPEDTAVYYCAVRWGYLYDYWGQGTQVTVSS	low polyreactivity
QVQLVESGGGLVQAGGSLRLSCAASGRTFLVNAMGWYRQAPGKERELVAVMTRGGSTNYADSVKGRFTISRDNAKNTVYLQMNSLKPEDTAVYYCAKQFSPYRSYGPVVRYDYWGQGTQVTVSS	low polyreactivity
QVQLVESGGGLVQAGGSLRLSCAASGRTFLVNAMGWYRQAPGKEREYVAAINFSVGTTTYADSVKGRFTISRDNAKNTVYLQMNSLKPEDTAVYYCNTYGRYWYIREDYWGQGTQVTVSS	high polyreactivity
QVQLVESGGGLVQAGGSLRLSCAASGRTFLVYAMGWYRQAPGKERELVAAISSDGSTNYADSVKGRFTISRDNAKNTVYLQMNSLKPEDTAVYYCARDGRTEHRGFDYWGQGTQVTVSS	low polyreactivity
QVQLVESGGGLVQAGGSLRLSCAASGRTFLYNTMGWYRQAPGKERELVAVISIDGGGTYADSVKGRFTISRDNAKNNVYLQMNSLKPEDTAVYDCAVDALCITYGYWGQGTQVTVSS	low polyreactivity
QVQLVESGGGLVQAGGSLRLSCAASGRTFLYYAMGWYRQAPGKERELVAAISSGGSTNYADSVKGRFTISRDNAKNTVYLQMNSLKPEDTAVYYCNADYTSRDTSDVIYEYDYWGQGTQVTVSS	low polyreactivity
QVQLVESGGGLVQAGGSLRLSCAASGRTFLYYAMGWYRQAPGKERELVAGITSGGSTNYADSVKGRFTITRDNAKNTVYLQMNSLKPEDTAVYYCAVDQGYSRTADVNYDYWGQGTQVTVSS	low polyreactivity
QVQLVESGGGLVQAGGSLRLSCAASGRTFLYYTMGWYRQAPGKERELVAAITSGTSTNYADSVKGRFTISRDNAKNTVYLQMNSLKPEDTAVYYCNKRAARSLNGYPLYGYYYWGQGTQVTVSS	low polyreactivity
QVQLVESGGGLVQAGGSLRLSCAASGRTFNGNTMGWYRQAPGKERELVAAISRRGGSTYYADSVKGRFTISRDTAKNTVYLQMNSLKPEVTAVYYCATHSTFGYDYWGQGTQVTVSS	high polyreactivity
